# From article PMC5802752 (Nature Communications, 2018)
# B1: human Fab 1A12 (Fab, V domains shown)
# VH: EVQLVQSGAELKKPGESLKISCKASGYTFTNYWVVWVRQMPGEGLEWMGSIHPRDSDARYSLSFEGRVTFSVDKSTTTAYLQWSSLKVSDSAIYYCARLSQVSGWSPWVGPWGQGTLVTVSS
# VL: DIVMTQSPSSLSASVGDRVTITCRASQSISVSLNWYQQKPGKAPKVLIYAASRLQSGIPSRFSGSGSGSHFTLTISSLQPEDFATYYCQETYSDLMYTFGQGTKVEIK
# Biological target: T1, factor H-binding protein (fHbp) variant 1.1, recombinant (Neisseria meningitidis serogroup B MC58 …, UniProt Q9JXV4)
# T1 construct: not shown: His6, C-terminal, kept
# Test: crystal structure
# Settings: both partners purified
binder,measurement,value
B1,binding result,binds
